The data set in a line: soluble on expression in E. coli; label from the status in PepcDB or PDB records.
For “AIACGDCVEKEYPNRGTTCLENGSFLLNFAGCAVCSKRDFMLITNRSLKEEDGEEIVTYDRIYHAVSVVWQS”, the “soluble on expression in E. coli” value is reported as “soluble”. For “MNSILICGGAGYIGSHAVKKLVDEGLSVVVVDNLQTGHEDAITEGAKFYNGDLRDKAFLRDVFTQENIEAVMHFAADSLVGVSMEKPLQYYNNNVYGALCLLEVMDEFKVDKFIFSSTAATYGEVDVDLITEETMTNPTNTYGETKLAIEKMLHWYSQASNLRYKIFRYFNVAGATPNGIIGEDHRPETHLIPLVLQVALGQREKIMMFGDDYNTPDGTCIRDYIHVEDLVAAHFLGLKDLQNGGESDFYNLGNGNGFSVKEIVDAVREVTNHEIPAEVAPRRAGDPARLVASSQKAKEKLGWDPRYVNVKTIIEHAWNWHQKQPNGYEK”, the “soluble on expression in E. coli” value is “soluble”.

Consider “MNLRGILPFAHDTLRKVVRSGDYVIDATCGNGHDTLLLAELVGVNGHVLGFDIQQMAIDATKTRLENAGVASQVELVCASHALIPEYATKPVRAAIFNLGYLPGGDKEITTTADSTLESIGHLMQLLEVGGVIIIVIYHGHPAGKVEKDAVLTFCEAIPQQDFHVLSYNFINQKNDAPFVIIIEKRKPLEHHHHHH”, for which the “soluble on expression in E. coli” value is reported as “not soluble”.

Regarding “MGSDKIHHHHHHMNEEEDAFSYLSKLGLTPYEIKVYKTLLIYGPNSATETAKLSKVPQPRVYDIFESLESKGAVEVSPGKRKIYRAVPIDNFIDRKLIEIRDYKKRIESYIEQQKKFKESNPYLWMIKNNFQIREKMKDVINEAENELIASLNYENIRYLKKYFIDAAKRGITVVIVAFPDAELDFLRTFPEDIVIRIRRGSASQVMIADRKHGLINVESTEDSEGYALYFDENELIHILNYYFYHTIWGPSDMFHDFPVRQNIKFSTAWLSCEAIDSFFKRSYSVSGIVTGYSATGQVKIEGTITGIDLIPGFKHTFFIKDNERVYSVGGKTARMEDIKLETLTMNVWIPNKQAISQKQ”, the “soluble on expression in E. coli” value is “not soluble”. The entry for “LTTRDFDRTGRPLRFTELGFGSSPLGNLYRAISEEEAQALLERAWAGGIRYFDTAPLYGYGLAEERLGRFLAGHPRSDYVLSTKVGRLLRPVEPGEARDGLGKFFEVPERKERFDYGYDGVMRSLEASLDRLGLDRVDVLYAHDLDLFTHGSQEALEARLAEFMAGGYRALVELRDQGVISAFGAGVNEWQPCQWLAERGEFDLFLLAGRYTLLEQEALESFLPLAEERGIGIVIGGPYNSGVLATGPKPGSFYDYRLAPQAVLDRVAQIHTICERWGVRMFEAAFQFPLRHPAVLSVIPGPQSVGEVMENRIAADAELPPGLWEDLKVAGLLRPD” is “soluble”.

In the case of “MGSDKIHHHHHHMKMSEKKEARVVINDLLAEQYANAFKAKEEGRPVGWSTSVFPQELAEVFDLNVLYPENQAAGVAAKKGSLELCEIAESKGYSIDLCAYARTNFGLLENGGCEALDMPAPDFLLCCNNICNQVIKWYENISRELDIPLIMIDTTFNNEDEVTQSRIDYIKAQFEEAIKQLEIISGKKFDPKKFEEVMKISAENGRLWKYSMSLPADSSPSPMNGFDLFTYMAVIVCARGKKETTEAFKLLIEELEDNMKTGKSSFRGEEKYRIMMEGIPCWPYIGYKMKTLAKFGVNMTGSVYPHAWALQYEVNDLDGMAVAYSTMFNNVNLDRMTKYRVDSLVEGKCDGAFYHMNRSCKLMSLIQYEMQRRAAEETGLPYAGFDGDQADPRAFTNAQFETRIQGLVEVMEERKKLNRGEI”, the “soluble on expression in E. coli” value is recorded as “not soluble”. As for “MFSLSKTLAALLLCSAASLAQAAETAICYNCPPEWADWGTQLKAIADSTSVQVPLDNKNSGQALAQIVAEQAAPVADVVYYGVTFGLQAQKAGVVDTYKPKHWDDIPAGLKDPQGHWFAIHSGTLGIMVNVDALGGLPVPQSWADLLKPEYKGMVGYLDPSSAFVGYVSAVAINQAMGGSLDNFGPAIDYFQKLAKNSPIVPKQTAYARALSGELPILVDYDFNAYRARYKDKANVAFVIPKEGTIGVPYVMSMVAKAPHRANAEKVLDFVLSDAGQALWAKAYLRPVRSKMPADVAAQFLPDSDYARAGVVDYQRMAAVQEAFAARYLREVK”, the entry is “not soluble”. As for “MGSDKIHHHHHHMVRLAVVGLGKMGLSHYAMINAHPDVKVEAVCDSTGYVLDVLNKYTGVRTYTDFDVMLRDIELDAVIIATPSRSHGQMVEVALNENLHVFCEKPFCLDITEGERLARIAAERGLVNQVGYHNRFVGAFQEVKRLLDAGAIGAVTHVLAEAYGPVVLKPKGSTWRTQRTEGGGCLYDYAAHPINLVNWYLGAPQSVGGSVLNKIFSKDTEDEVFSTLYYEEGKSVQISVNWSDESYRKMTTKVTIWGTQGRIYADRQECQVYIRDGVNIPAGYQRGWNVRYTTDLTEAVWFYLRGEEYSAQLDYFVRCIEEKEGGGNINSFEEAVITDRVMSMMVADAEKRPPVTSGIAPRQAPGKKFGLLFGGRKAVS”, the “soluble on expression in E. coli” value was “not soluble”. The entry for “MNDLEKKFYELPELPYPYDALEPHISREQLTIHHQKHHQAYVDGANALLRKLDEARESDTDVDIKAALKELSFHVGGYVLHLFFWGNMGPADECGGEPSGKLAEYIEKDFGSFERFRKEFSQAAISAEGSGWAVLTYCQRTDRLFIMQVEKHNVNVIPHFRILLVLDVWEHAYYIDYRNVRPDYVEAFWNIVNWKEVEKRFEDIL” is “soluble”; for “MTDIPHDHPRYESLLAREKVAAGVKMGITSIQGLIAQGRGESFDYLIGERSTESALYAERAAVAALLLAENPVISVNGNVAALAPDKVVTLADITGARIEVNLFHRTDTRVHLIIEQLKASGAAEVLGKNPDASLELSHDRRLVSSKGIYTADVVLVPLEDGDRCEKLVEMGKTVITIDLNPLSRTSKTATISIVDNLTRALGNMAKFAQEMKKERKEELVKLITTYDNKRTLSEAISEIQEHLKTMAAETGLEHHHHHH” it is “soluble”; for “MKPATLTAELDVRSGGRYRISFVSDDGEYFEAGGTYREVVPNELLVFTWAWHSTPERESLVTISFKPDSAGTLMIFHHAQFFDEAARDNHRRGWSSFLDKLDAFVALEHHHHHH” it is “not soluble”. The entry for “MSLDHHLQGPVVAGMPNLHSHAFQRGMAGLSESRSGEKDSFWSWRKRMYHFLQVLSPEDVEAIASQLYLEMLKAGYTSVGEFHYLHHAVDGKHYANPAEMSERILAASETTGIGLTHLPVLYRFGGFGSREPSFQQGRFIHEPDEFVSLLEKLSPSFEKHPNRRLGMAPHSLRAVSPDLLSKVLPEFQRLCPGSPLHLHISEQTAEVEECLEWSGLRPVQWFFENLEPDSNWCLIHATHLDSQERRKLAESEVTVGLCPTTEANLGDGIFPMKEFMEEGGGFGIGSDSHVSISLCEELRWLEYQQRLLQRQRNCLREGHHHHHH” is “soluble”; for “MGSDKIHHHHHHMINYHPDQHLLSLHAKGELPLSMSIAISAHAELCPHCQQQLDQMTIALSEQQFESAVKTQSVDTNDNHQLDALLEQLLNSTLDTLEIEQASTIDTIEDNSVSIKGQHYPLPKVFRKQINASWQGIGKVSRLRLDTGEPQARASLLHIAANGEIPEHTHKGAELTLLLAGEFSDCYNTYKPGDFMLLDKEHQHSPKTLEGCLCYTIVDAPLYFTKGFSKLLNPIGDLLY” it is “not soluble”; for “PVDCSVIVVNKQTKDYAESVGRKVRDLGMVVDLIFLNTEVSLSQALEDVSRGGSPFAIVITQQHQIHRSCTVNIMFGTPQEHRNMPQADAMVLVARNYERYKNECREKEREEIARQA” it is “soluble”. As for “MRTAEIREKFLSFFEGKGHLRLPSFSLIPEDDPSLLFTSAGMAPLKPYFLGAKPIFGGREWRRVTTCQECLRVGDIENVGRTSRHNTYFEMLGNFSFGDYFKKEAILWAWEFLTEHLKLDPGRLWVTVFEDDDEAYEIWRDLVGVPEERIGRFGEDENYWPGGAITHGPNGPSGPCSEIFYDRGPAYGTPDETGPNTGSGDRFVEIWNLVFTQYDRQGPIPGPGILKPLPQKNIDTGMGLYRVAAILQDVEDFYRTDTFFPIIQEVARMSGRPYEGKTSVSHRVIADHVRAVVAALSDGATFSNTGRGYVIRRLLRRALRHGYLLGLSDPFLHRLAPLVAELLGDFYPEMRENLPAVEKQIRLEEERFLETLEGGLKRLDALLSGLKPGEVLPGKEAFRLYDTYGFPLDLTVEIAAERGYGVDTEGFQKAMEEQQSRSRAAMAFEREIFKKGAQVLEELYAERGATEFLGYNALEAEAEVLALLAGDQSLLEAGPGTEVQVVLDKTPFYAEGGGQIGDFGLLEWPGGRARVETTRKTERGIFLHKARVEEGVLRVGERVRAVVDPRRRDTERNHTATHLLHAALRAVLGPHVRQAGSLVAPDRLRFDFTHPEPLKPEELERVELLVNRWIMADFPVTWRYMPLEEARKEGAMALFGEKYGEVVRVVRVEGSPLEGLESKELCGGCHVRRTGEIGAFLIRSEEAVSAGVRRIEAVTGEEAIRFARGSLNRLKALAERLEVGEAALEERLEKLLAELKEKEREVESLKARLVQAALGGGGGASLEEKGGLRWTVAELPGLDAKALRQAADDLVARGADVALVLSGGQAVLKLSPKAQGMGLEAGALFRALAEKAGGRGGGKGALAQGGGLDPRKAREALPGLLP”, the entry is “soluble”; as for “MKDMKTIEGIIVVTTPEIPGYKVVEVKGVARGGTVRATHIGRDIMALLRNLKGGEVKEYTEMMAEAREEALRRMALHAKELGANAVVNFRFATSNLGGSMAEIYAYGTAVVVERVEK”, “soluble”. In the case of “MDFTQQLQACVTQANQALSRFIAPLPFQNTPVVEAMQYGALLGGKRLRPFLVYATGQMFGVSTATLDAPAAAVECIHAYSLIHDDLPAMDDDDLRRGLPTCHIKFGEANAILAGDALQTLAFAIISDAPMPEVADRDRIAMIAELANASGIAGMCGGQALDLAAEGQRITLDALERIHRHKTGALIRAAVRLGALSAGDKGRNTLPILDRYAESIGLAFQVQDDILDVVGDTATLGKRQGADQQLGKSTYPALLGLEQARNKARDLIEDARQSLHQLAAQSLDTSALEALANYIIQRDK”, the “soluble on expression in E. coli” value is recorded as “not soluble”. With “EITPLIFQKQTTEEVQNLKPYTALQLEGRDIYIREGCNVCHSQMVRPFRSETERYGHYSVAGESVWEHPFLWGSKRTGPDLARVGGRYSDEWHRVHLLNPRELVPESNMPAFPWLAKNTLDGKYTQQKMTLFRDKFGVPYTDEQIANATKDVEGKTEMDAIIAYLQSLGHAMK”, the “soluble on expression in E. coli” value is “not soluble”. For the sequence “MDFQNFVATLESFKDLKSGISGSRIKKLTTYALDHIDIESKIISLIIDYSRLCPDSHKLGSLYIIDSIGRAYLDETRSNSNSSSNKPGTCAHAINTLGEVIQELLSDAIAKSNQDHKEKIRMLLDIWDRSGLFQKSYLNAIRSKCFAAALEHHHHHH”, the “soluble on expression in E. coli” value was “soluble”. The entry for “MGSDKIHHHHHHMNQYERKMLDLLKRGKQELGYVGVKAEFEAEGTRTDELLRLIELARKAGLNVGLKIGGCEAMRDLMESKQYGVEYIIAPMIESGYALSKFIDAKNKVYSKDEQRDTRFLFNVETKSAFGCMDELVQIAAQPGGADGVVFGRVDFSLSMGLTRDDINDPKVTSYCLEVSEACKRSGLDFVVGGGVSMDALSIMKELNSSHLSRFETRKIIFDAAMMENADVHNGLLQAVHFELLWLLNKREYYSCILKEDAKRIEMLERRWHVLSADEKASTSTYVNQPNI” is “not soluble”. Take “MKIGFFTDTYFPQVSGVATSIKTLKDELEKHGHEVYIFTTTDPNATDFEEDVIRMPSVPFVSFKDRRVVVRGMWYAYLIAKELELDLIHTHTEFGAGILGKMVGKKMKIPVIHTYHTMYEDYLHYIAKGKVVRPSHVKFFSRVFTNHTTGVVCPSERVIEKLRDYGVTAPMRIIPTGIEIDKFLRPDITEEMIAGMRQQLGIEEQQIMLLSLSRISYEKNIQAIIQGLPQVIEKLPQTRLVIVGNGPYLEDLKELAEELEVSEYVQFTGEVPNEEVAIYYKAADYFVSASTSETQGLTYTEAMAAGVQCVAEGNAYLNNLFDHESLGKTFKTDSDFATTLIDYIQANIKMDQTILDEKLFEISSTNFGNKMIEFYQDTLIYFDQLQMEKENADSIKKIKVKFTSLRKLEHHHHHH”: the “soluble on expression in E. coli” value is “soluble”.

Source of the values: the DeepSol protein solubility set.
